From article PMC12122940

Target: H3 1–19 peptide

Chain of PRDM9 (195–415) (Q9NQV7 195-415): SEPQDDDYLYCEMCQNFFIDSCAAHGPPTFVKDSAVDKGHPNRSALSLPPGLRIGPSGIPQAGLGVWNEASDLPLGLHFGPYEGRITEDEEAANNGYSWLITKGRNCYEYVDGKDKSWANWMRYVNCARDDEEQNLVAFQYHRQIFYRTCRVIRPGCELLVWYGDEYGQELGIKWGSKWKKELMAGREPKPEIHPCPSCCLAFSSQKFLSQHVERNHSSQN

methylation of the soluble peptide (2.5 µM peptide, 50 nM enzyme, radioactively labeled AdoMet, autoradiography); ratio of the initial methylation rates H3K4/H3K36 (fold (against the H3K36 26-44 peptide)): 5.2
Substance: PRDM9 (195–415) (from UniProt Q9NQV7 195-415) (enzyme)
